Our source for the stoichiometry N values is publication PMC9935853.

The target in the experiment is S. pombe respiratory complex IV (cytochrome c oxidase), affinity purified through a C-terminal twin-strep tag on subunit Cox5 (S. pombe) (UniProt P07657). The experiment can be described thus: pull-down + SEC; membranes solubilised in 1% GDN; StrepTactin column through Cox5-2xstrep, then Superose 6 Increase in 25 mM KH2PO4 pH 8.0, 150 mM KCl, 0.01% GDN; peaks analysed by reduced minus oxidized difference spectra.
Sequence of UniProt P07657 (P07657 whole entry, looked up, tested part not stated, one chain of several): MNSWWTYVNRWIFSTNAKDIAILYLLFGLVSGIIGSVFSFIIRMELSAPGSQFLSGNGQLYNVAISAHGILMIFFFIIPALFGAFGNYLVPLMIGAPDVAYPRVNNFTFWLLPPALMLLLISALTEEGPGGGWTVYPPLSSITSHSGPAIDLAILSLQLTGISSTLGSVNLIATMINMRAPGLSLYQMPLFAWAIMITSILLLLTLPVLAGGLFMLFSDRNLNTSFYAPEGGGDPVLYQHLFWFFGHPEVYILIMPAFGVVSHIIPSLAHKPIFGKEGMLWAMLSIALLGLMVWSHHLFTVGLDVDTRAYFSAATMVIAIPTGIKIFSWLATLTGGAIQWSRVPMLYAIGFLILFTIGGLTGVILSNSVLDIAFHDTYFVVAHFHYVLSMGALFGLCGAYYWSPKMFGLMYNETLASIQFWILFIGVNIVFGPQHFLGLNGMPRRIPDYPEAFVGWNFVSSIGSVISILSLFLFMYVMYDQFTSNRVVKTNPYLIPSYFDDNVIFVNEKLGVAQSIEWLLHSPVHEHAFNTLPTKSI

A word on the stoichiometry N: it is the number of molecules, sites or subunits per partner or assembly. On to “S. pombe respiratory complex III (cyt. bc1 complex)”, for which the stoichiometry N was 2 CIII:CIV.
